Measurements taken from PMC7954978.

Biological target: GltPh-XL2 (cysteine-less GltPh with L152C and G351C) (UniProt O59010)
Test: cryo-EM structure

## GltPh-XL2 (cysteine-less GltPh with L152C and G351C) (from UniProt O59010 1-417) (natural protein)
  stoichiometry N: 3
